Source: patent US20250346668A1

Experiments:
[1] = target: Cynomolgus monkey CD3e/g protein (cynomolgus monkey); assay: ELISA, coated cyno CD3e/g
[2] = target: Human CD3e/g protein (human) (UniProt P07766); assay: ELISA, coated hCD3e/g
[3] = target: human CD3e/d protein (Sinobiological, CAT: CT038-H2508H-B) (human) (UniProt P07766); assay: ELISA, coated hCD3e/d

OD450 nm at 0.000853 nM [1] | OD450 nm at 0.0043 nM [1] | OD450 nm at 0.02 nM [1] | OD450 nm at 0.11 nM [1] | OD450 nm at 0.53 nM [1] | OD450 nm at 2.67 nM [1] | OD450 nm at 13.3 nM [1] | OD450 nm at 66.7 nM [1] | EC50 [2] | OD450 nm at 0.000853 nM [2] | OD450 nm at 0.0043 nM [2] | OD450 nm at 0.02 nM [2] | OD450 nm at 0.11 nM [2] | OD450 nm at 0.53 nM [2] | OD450 nm at 2.67 nM [2] | OD450 nm at 13.3 nM [2] | OD450 nm at 66.7 nM [2] | Substance | further results
0.04 OD450 nm | 0.04 OD450 nm | 0.04 OD450 nm | 0.04 OD450 nm | 0.04 OD450 nm | 0.04 OD450 nm | 0.04 OD450 nm | 0.04 OD450 nm | 4.2 nM | 0.07 OD450 nm | 0.07 OD450 nm | 0.08 OD450 nm | 0.12 OD450 nm | 0.31 OD450 nm | 0.59 OD450 nm | 0.94 OD450 nm | 1.22 OD450 nm | HIT3a (antibody) | 
0.04 OD450 nm | 0.04 OD450 nm | 0.04 OD450 nm | 0.04 OD450 nm | 0.04 OD450 nm | 0.03 OD450 nm | 0.25 OD450 nm | 0.26 OD450 nm | 2.95 nM | 0.07 OD450 nm | 0.08 OD450 nm | 0.09 OD450 nm | 0.17 OD450 nm | 0.47 OD450 nm | 0.8 OD450 nm | 1.21 OD450 nm | 1.53 OD450 nm | OKT3 (antibody) | 
0.12 OD450 nm | 0.2 OD450 nm | 0.19 OD450 nm | 0.5 OD450 nm | 1.83 OD450 nm | 3.41 OD450 nm | 3.57 OD450 nm | 3.55 OD450 nm | 0.64 nM | 0.18 OD450 nm | 0.1 OD450 nm | 0.15 OD450 nm | 0.38 OD450 nm | 1.45 OD450 nm | 3.1 OD450 nm | 3.29 OD450 nm | 3.23 OD450 nm | SP34 (antibody) | EC50 [3]: 1.51 nM; Emax (OD) [3]: 2.01 OD; OD450 nm at 0.00128 nM [3]: 0.05 OD450 nm; OD450 nm at 0.0064 nM [3]: 0.06 OD450 nm; OD450 nm at 0.032 nM [3]: 0.09 OD450 nm; OD450 nm at 0.16 nM [3]: 0.23 OD450 nm; OD450 nm at 0.8 nM [3]: 0.7 OD450 nm; OD450 nm at 4 nM [3]: 1.49 OD450 nm; OD450 nm at 20 nM [3]: 2.01 OD450 nm; OD450 nm at 100 nM [3]: 1.87 OD450 nm; EC50 [1]: 0.55 nM
0.0698 OD450 nm | 0.101 OD450 nm | 0.07 OD450 nm | 0.07 OD450 nm | 0.06 OD450 nm | 0.07 OD450 nm | 0.07 OD450 nm | 0.08 OD450 nm |  | 0.177 OD450 nm | 0.101 OD450 nm | 0.08 OD450 nm | 0.09 OD450 nm | 0.14 OD450 nm | 0.07 OD450 nm | 0.1 OD450 nm | 0.15 OD450 nm | mouse IgG (antibody) | 
